Test results as given in the supplement of paper PMC10567573.

B1: HDAC6 (parent)
chain: DLMETTQYMNEGELRVLADTYDSV

Variants of: B1
Experiment: protein stability index of a GFP-peptide fusion (GPS, HEK-293T) (PSI 1-6); higher = more stable
Conditions: c terminus: a fixed tail appended
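Further: lentivirally expressed fusions sorted by FACS into six bins by GFP to DsRed ratio, PSI derived from sequencing read proportions per bin multiplied by bin number.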

Going from DLMETTQYKNEGELRVLADTYDSV [M9K] to DLMETTQYYNEGELRVLADTYDSV [M9Y], the protein stability index rises from 4.24 to 4.31.

Compared with DLMETTQYNNEGELRVLADTYDSV [M9N], DLMETTQYDNEGELRVLADTYDSV [M9D] is higher in protein stability index: 4.12 for the first, 4.95 for the second.

Compared with DLMETTQYLNEGELRVLADTYDSV [M9L], DLMEDTQYMNEGELRVLADTYDSV [T5D] is higher in protein stability index: 3.84 for the first, 4.43 for the second.

Compared with DLMEHTQYMNEGELRVLADTYDSV [T5H], DLMEYTQYMNEGELRVLADTYDSV [T5Y] is lower in protein stability index: 1.89 for the first, 1.38 for the second.

Compared with DLMESTQYMNEGELRVLADTYDSV [T5S], DLMECTQYMNEGELRVLADTYDSV [T5C] is higher in protein stability index: 1.96 for the first, 2.38 for the second.

First: DLMEGTQYMNEGELRVLADTYDSV [T5G]
Second: DLMEPTQYMNEGELRVLADTYDSV [T5P]
The protein stability index of the first is higher: 3.72 for the first, 1.72 for the second.

First: DLMEWTQYMNEGELRVLADTYDSV [T5W]
Second: DLMEETQYMNEGELRVLADTYDSV [T5E]
The protein stability index of the first is lower: 1.61 for the first, 2.54 for the second.

Compared with DLMEFTQYMNEGELRVLADTYDSV [T5F], DLMELTQYMNEGELRVLADTYDSV [T5L] is lower in protein stability index: 2.03 for the first, 1.39 for the second.

First: DLMEKTQYMNEGELRVLADTYDSV [T5K]
Second: DLMERTQYMNEGELRVLADTYDSV [T5R]
The protein stability index of the first is higher: 2.9 for the first, 2.56 for the second.

First: DLMEMTQYMNEGELRVLADTYDSV [T5M]
Second: DLMEITQYMNEGELRVLADTYDSV [T5I]
The protein stability index of the first is lower: 1.71 for the first, 2.67 for the second.

Going from DLMEQTQYMNEGELRVLADTYDSV [T5Q] to DLMEVTQYMNEGELRVLADTYDSV [T5V], the protein stability index falls from 1.99 to 1.5.

First: DLMENTQYMNEGELRVLADTYDSV [T5N]
Second: DLMKTTQYMNEGELRVLADTYDSV [E4K]
The protein stability index of the first is higher: 2.32 for the first, 2.09 for the second.

First: DLMDTTQYMNEGELRVLADTYDSV [E4D]
Second: DLMWTTQYMNEGELRVLADTYDSV [E4W]
The protein stability index of the first is higher: 2.52 for the first, 1.5 for the second.

First: DLMHTTQYMNEGELRVLADTYDSV [E4H]
Second: DLMATTQYMNEGELRVLADTYDSV [E4A]
The protein stability index of the first is higher: 2.18 for the first, 2.03 for the second.

Compared with DLMQTTQYMNEGELRVLADTYDSV [E4Q], DLMFTTQYMNEGELRVLADTYDSV [E4F] is lower in protein stability index: 3.94 for the first, 1.48 for the second.

Going from DLMTTTQYMNEGELRVLADTYDSV [E4T] to DLMGTTQYMNEGELRVLADTYDSV [E4G], the protein stability index falls from 3 to 1.7.

First: DLMYTTQYMNEGELRVLADTYDSV [E4Y]
Second: DLMNTTQYMNEGELRVLADTYDSV [E4N]
The protein stability index of the first is lower: 1.51 for the first, 1.98 for the second.

Compared with DLMVTTQYMNEGELRVLADTYDSV [E4V], DLMPTTQYMNEGELRVLADTYDSV [E4P] is higher in protein stability index: 1.83 for the first, 2.23 for the second.

First: DLMMTTQYMNEGELRVLADTYDSV [E4M]
Second: DLMITTQYMNEGELRVLADTYDSV [E4I]
The protein stability index of the first is higher: 1.31 for the first, 1.11 for the second.

Compared with DLMCTTQYMNEGELRVLADTYDSV [E4C], DLMSTTQYMNEGELRVLADTYDSV [E4S] is higher in protein stability index: 1.74 for the first, 1.78 for the second.

Compared with DLMRTTQYMNEGELRVLADTYDSV [E4R], DLKETTQYMNEGELRVLADTYDSV [M3K] is higher in protein stability index: 3.36 for the first, 4.13 for the second.

Compared with DLSETTQYMNEGELRVLADTYDSV [M3S], DLRETTQYMNEGELRVLADTYDSV [M3R] is higher in protein stability index: 3.48 for the first, 3.77 for the second.

Compared with DLVETTQYMNEGELRVLADTYDSV [M3V], DLPETTQYMNEGELRVLADTYDSV [M3P] is higher in protein stability index: 2.2 for the first, 4.65 for the second.

Compared with DLQETTQYMNEGELRVLADTYDSV [M3Q], DLTETTQYMNEGELRVLADTYDSV [M3T] is lower in protein stability index: 3.29 for the first, 3.15 for the second.

First: DLWETTQYMNEGELRVLADTYDSV [M3W]
Second: DLGETTQYMNEGELRVLADTYDSV [M3G]
The protein stability index of the first is lower: 2 for the first, 3.84 for the second.

Going from DLHETTQYMNEGELRVLADTYDSV [M3H] to DLLETTQYMNEGELRVLADTYDSV [M3L], the protein stability index falls from 3.91 to 1.91.

Compared with DLNETTQYMNEGELRVLADTYDSV [M3N], DLYETTQYMNEGELRVLADTYDSV [M3Y] is lower in protein stability index: 4.55 for the first, 2.74 for the second.

First: DLAETTQYMNEGELRVLADTYDSV [M3A]
Second: DLDETTQYMNEGELRVLADTYDSV [M3D]
The protein stability index of the first is lower: 3.05 for the first, 4.6 for the second.

Going from DLIETTQYMNEGELRVLADTYDSV [M3I] to DLFETTQYMNEGELRVLADTYDSV [M3F], the protein stability index rises from 2.13 to 2.22.

Going from DLCETTQYMNEGELRVLADTYDSV [M3C] to DLEETTQYMNEGELRVLADTYDSV [M3E], the protein stability index rises from 1.69 to 3.74.

First: DLMETTQYMNELELRVLADTYDSV [G12L]
Second: DLMETTQYMNEYELRVLADTYDSV [G12Y]
The protein stability index of the first is higher: 3.56 for the first, 2.62 for the second.

First: DLMETTQYMNEHELRVLADTYDSV [G12H]
Second: DLMETTQYMNEVELRVLADTYDSV [G12V]
The protein stability index of the first is higher: 3.46 for the first, 2.85 for the second.

First: DLMETTQYMNEEELRVLADTYDSV [G12E]
Second: DLMETTQYMNEFELRVLADTYDSV [G12F]
The protein stability index of the first is higher: 4.82 for the first, 2.85 for the second.

First: DLMETTQYMNEMELRVLADTYDSV [G12M]
Second: DLMETTQYMNEPELRVLADTYDSV [G12P]
The protein stability index of the first is lower: 3.18 for the first, 4.74 for the second.

Compared with DLMETTQYMNEDELRVLADTYDSV [G12D], DLMETTQYMNEKELRVLADTYDSV [G12K] is lower in protein stability index: 4.79 for the first, 3.87 for the second.

Going from DLMETTQYMNETELRVLADTYDSV [G12T] to DLMETTQYMNENELRVLADTYDSV [G12N], the protein stability index rises from 3.49 to 4.08.

Compared with DLMETTQYMNEQELRVLADTYDSV [G12Q], DLMETTQYMNERELRVLADTYDSV [G12R] is lower in protein stability index: 4.16 for the first, 3.71 for the second.

Compared with DLMETTQYMNEIELRVLADTYDSV [G12I], DLMETTQYMNEAELRVLADTYDSV [G12A] is lower in protein stability index: 2.9 for the first, 2.33 for the second.

First: DLMETTQYMNEWELRVLADTYDSV [G12W]
Second: DLMETTQYMNESELRVLADTYDSV [G12S]
The protein stability index of the first is lower: 2.03 for the first, 3.58 for the second.

Going from DLMETTQYMNECELRVLADTYDSV [G12C] to DLMETTQYMAEGELRVLADTYDSV [N10A], the protein stability index falls from 3.07 to 1.98.

Going from DLMETTQYMREGELRVLADTYDSV [N10R] to DLMETTQYMCEGELRVLADTYDSV [N10C], the protein stability index rises from 1.75 to 1.88.

Going from DLMETTQYMFEGELRVLADTYDSV [N10F] to DLMETTQYMYEGELRVLADTYDSV [N10Y], the protein stability index rises from 1.05 to 3.32.

First: DLMETTQYMGEGELRVLADTYDSV [N10G]
Second: DLMETTQYMPEGELRVLADTYDSV [N10P]
The protein stability index of the first is lower: 3.14 for the first, 4.49 for the second.

Compared with DLMETTQYMSEGELRVLADTYDSV [N10S], DLMETTQYMTEGELRVLADTYDSV [N10T] is higher in protein stability index: 1.74 for the first, 2.21 for the second.

Compared with DLMETTQYMDEGELRVLADTYDSV [N10D], DLMETTQYMVEGELRVLADTYDSV [N10V] is lower in protein stability index: 3.95 for the first, 1.8 for the second.

First: DLMETTQYMMEGELRVLADTYDSV [N10M]
Second: DLMETTQYMHEGELRVLADTYDSV [N10H]
The protein stability index of the first is higher: 4.08 for the first, 2.57 for the second.

Compared with DLMETTQYMEEGELRVLADTYDSV [N10E], DLMETTQYMQEGELRVLADTYDSV [N10Q] is lower in protein stability index: 2.91 for the first, 2.07 for the second.
